In patent US20260242735A1 (UNIVERSIT T BASEL, published 2026):

Experiments:
Assay in all cases: BLI Octet, IgG captured on AHC, CD33 analyte;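 further: CD33 variants and wild type run as analyte at 5, 50 and 500 nM, 700 s association then 1200 s dissociation, buffer-only reference subtracted, global 1:1 fit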
[1] = molecular target: human CD33 extracellular region F21S (human, UniProt P20138 22-259)
Description: (§1) Human CD33 wt and variants, were used as analyte at 3 different concentrations (500, 50 and 5 nM). Association of the analyte to the antibodies was monitored for 700 s and dissociation of the analyte from the antibodies was monitored for 1200 s. Reference subtraction was performed against buffer only wells. AHC tips were regenerated using 10 mM Glycine-HCl pH 1.7. Data were analyzed with Octet Data Analysis software HT 12.0. Data were fitted to a 1:1 binding model. Kinetic rates ka and kd and response signal were globally fitted.

[2] = molecular target: human CD33 extracellular region N20G (human, UniProt P20138 21-259)
Description: as §1

[3] = molecular target: human CD33 extracellular region F44S (human, UniProt P20138 18-259)
human CD33 extracellular region F44S, sequence (P20138 other isoform, or with tags, fused parts or gaps F44S F44S): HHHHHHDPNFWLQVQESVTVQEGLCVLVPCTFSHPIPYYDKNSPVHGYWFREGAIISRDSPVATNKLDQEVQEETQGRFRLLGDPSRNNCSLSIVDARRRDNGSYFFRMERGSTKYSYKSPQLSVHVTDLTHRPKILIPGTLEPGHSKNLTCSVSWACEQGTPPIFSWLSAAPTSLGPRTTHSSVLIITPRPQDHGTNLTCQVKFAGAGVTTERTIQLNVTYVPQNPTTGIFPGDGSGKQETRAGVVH
Description: as §1

[4] = molecular target: human CD33 extracellular region P48D (human, UniProt P20138 18-259)
human CD33 extracellular region P48D, sequence (P20138 other isoform, or with tags, fused parts or gaps P48D P48D): as the sequence (P20138 other isoform, or with tags, fused parts or gaps F44S F44S) above, with S33F, P37D counted along it
Description: as §1

[5] = molecular target: human CD33 extracellular region Y50H (human, UniProt P20138 18-259)
human CD33 extracellular region Y50H, sequence (P20138 other isoform, or with tags, fused parts or gaps Y50H Y50H): as the sequence (P20138 other isoform, or with tags, fused parts or gaps F44S F44S) above, with S33F, Y39H counted along it
Description: as §1

[6] = molecular target: human CD33 extracellular region N20K (human, UniProt P20138 21-259)
human CD33 extracellular region N20K, sequence (P20138 other isoform, or with tags, fused parts or gaps N20K N20K): as the sequence (P20138 other isoform, or with tags, fused parts or gaps F44S F44S) above, with N9K, S33F counted along it
Description: as §1

[7] = molecular target: human CD33 extracellular region F21S_W22R (human, UniProt P20138 23-259)
human CD33 extracellular region F21S_W22R, sequence (P20138 other isoform, or with tags, fused parts or gaps F21S W22R F21S W22R): as the sequence (P20138 other isoform, or with tags, fused parts or gaps F44S F44S) above, with F10S, W11R, S33F counted along it
Description: as §1

[8] = molecular target: human CD33 extracellular region F21I (human, UniProt P20138 22-259)
human CD33 extracellular region F21I, sequence (P20138 other isoform, or with tags, fused parts or gaps F21I F21I): as the sequence (P20138 other isoform, or with tags, fused parts or gaps F44S F44S) above, with F10I, S33F counted along it
Description: as §1

[9] = molecular target: T1, human CD33 extracellular region, wild type (human, UniProt P20138 18-259)
T1 construct: also called WT; CD33 wt
T1 sequence (P20138 other isoform, or with tags, fused parts or gaps): as the sequence (P20138 other isoform, or with tags, fused parts or gaps F44S F44S) above, with S33F counted along it
Description: as §1

[10] = molecular target: human CD33 extracellular region Y50L (human, UniProt P20138 18-259)
human CD33 extracellular region Y50L, sequence (P20138 other isoform, or with tags, fused parts or gaps Y50L Y50L): as the sequence (P20138 other isoform, or with tags, fused parts or gaps F44S F44S) above, with S33F, Y39L counted along it
Description: as §1

[11] = molecular target: human CD33 extracellular region Y50R (human, UniProt P20138 18-259)
human CD33 extracellular region Y50R, sequence (P20138 other isoform, or with tags, fused parts or gaps Y50R Y50R): as the sequence (P20138 other isoform, or with tags, fused parts or gaps F44S F44S) above, with S33F, Y39R counted along it
Description: as §1

[12] = molecular target: human CD33 extracellular region P48F (human, UniProt P20138 18-259)
human CD33 extracellular region P48F, sequence (P20138 other isoform, or with tags, fused parts or gaps P48F P48F): as the sequence (P20138 other isoform, or with tags, fused parts or gaps F44S F44S) above, with S33F, P37F counted along it
Description: as §1

[13] = molecular target: human CD33 extracellular region F43S (human, UniProt P20138 18-259)
human CD33 extracellular region F43S, sequence (P20138 other isoform, or with tags, fused parts or gaps F43S F43S): as the sequence (P20138 other isoform, or with tags, fused parts or gaps F44S F44S) above, with F32S, S33F counted along it
Description: as §1

human CD33 extracellular region N20G, sequence (P20138 other isoform, or with tags, fused parts or gaps N20G N20G): as the sequence (P20138 other isoform, or with tags, fused parts or gaps F44S F44S) above, with N9G, S33F counted along it
human CD33 extracellular region F21S, sequence (P20138 other isoform, or with tags, fused parts or gaps F21S F21S): as the sequence (P20138 other isoform, or with tags, fused parts or gaps F44S F44S) above, with F10S, S33F counted along it

- % WT binding [1]: 78.3%
- % WT binding [2]: 115%
- % WT binding [3]: 84.6%
- % WT binding [4]: 5.75%
- % WT binding [5]: 28%
- % WT binding [6]: 102%
- % WT binding [7]: 110%
- % WT binding [8]: 84.2%
- % WT binding [9]: 100%
- % WT binding [10]: 25.3%
- % WT binding [11]: 0%
- % WT binding [12]: 9.11%
- % WT binding [13]: 80%
B1: Refmab #4 (antibody, human IgG1, V domains shown)
VH: QVQLVQSGAEVKKPGESVKVSCKASGYTFTNYGMNWVKQAPGQGLEWMGWINTYTGEPTYADKFQGRVTMTTDTSTSTAYMEIRNLGGDDTAVYYCARWSWSDGYYVYFDYWGQGTSVTVSS
VL: DIVMTQSPDSLTVSLGERTTINCKSSQSVLDSSTNKNSLAWYQQKPGQPPKLLLSWASTRESGIPDRFSGSGSGTDFTLTIDSPQPEDSATYYCQQSAHFPITFGQGTRLEIK
